Experiment: soluble on expression in E. coli; label from the status in PepcDB or PDB records

Soluble on expression in E. coli, not soluble:
MANIVITTHWTDGDVLPFIKIGSELRKRGHRVTLITHCYYKNMAKSQGLDFEAWDSPEQHRQMLEDMKEELDPLRNPCALERYKKKYESIEVRLREFKKVIAHCNTTDTVLVAKNRSSVAAYLAAEKLNIPLVCVFMAPSEMLSMVSYEMMLGKLLANELNLLRKELNLAPVKSWLAWQSSPKRQIALWPDWFAEPIEEWPAEVINVGFPLSYNERFDNLPPDLMEDLLGDEPPVVITGGTSKTIRPEFYPLCVETCRLSGRKGILVTRYEELLPKELPDKVKWFRELPLNKIFPYTSAVIHHGGMGTLSGAIAAGVPQLVLPYYLDRPYNALCLKKLGIAEYLPPIKWKPEIMVDALQKITASSFRERCKLFSKKVSLQNTMNEICCLIEETVNNEEFLLKDISLLQTT
MNIDELIAIDVHTHAEEPCCGPRDDGYDEFQAGMAKYFKNPAGHKGMLPTVQETAAYYRERKIGCVIFPVDAERETGFRRYENEEVAKIAAENSDIMIPFASIDPAKGKAGAREARRLVREFGVKGFKFHPTMQGFYPNDRMAYPLYEAIAEEGAITLFHTGQTGVGAGLRGGMAMRLKFSNPIHLDDVAVDFPDMPIILAHPSFPWQEEALSVATHKPNVYIDMSGWSPKYFPPILVQYANSLLKHKMLFGSDWPAMTPERWLNDFANISIKDEVRPLILKENARRLLKLLEHHHHHH
MRKTKIVCTIGPASESEEMIEKLINAGMNVARLNFSHGSHEEHKGRIDTIRKVAKRLDKIVAILLDTKGPEIRTHNMKDGIIELERGNEVIVSMNEVEGTPEKFSVTYENLINDVQVGSYILLDDGLIELQVKDIDHAKKEVKCDILNSGELKNKKGVNLPGVRVSLPGITEKDAEDIRFGIKENVDFIAASFVRRPSDVLEIREILEEQKANISVFPKIENQEGIDNIAEILEVSDGLMVARGDMGVEIPPEKVPMVQKDLIRQCNKLGKPVITATQMLDSMQRNPRATRAEASDVANAIYDGTDAVMLSGETAAGLYPEEAVKTMRNIAVSAEAAQDYKKLLSDRTKLVETSLVNAIGISVAHTALNLNVKAIVAATESGSTARTISKYRPHSDIIAVTPSEETARQCSIVWGVQPVVKKGRKSTDALLNNAVATAVETGRVSNGDLIIITAGVPTGETGTTNMMKIHLVGDEIANGQGIGRGSVVGTTLVAETVKDLEGKDLSDKVIVTNSIDETFVPYVEKALGLITEENGITSPSAIVGLEKGIPTVVGVEKAVKNISNNMLVTIDAAQGKIFEGYANVL
MSSALISSEQALNDYFTALLDEETAEFESTLKPEPVWEMAPAIQSVPNKSYFDAEIEELELPNLEDVQRLLSQLESSNPVADLDLEQILEENTAKIAKIDPVVQPCSVVEEIQEWEIETSYVEPDIETPESVIEDDLEPESVDTEAEREIAIETSIEEPVAEVPVVEAQAVPETQAGRNKLGTWTNTIREKDFQVLYFDVNGVTFAVPLDELGGIHRMTTLNHLIGRPAWYLGLQTNRDSQLDVVDTAKWVMAEKLRDESYKQAYQYIVMLGESAWGLASTQLMGTELLSTEKVRWREQVGKRPWLAGMVKEKMCALIHVQALIAMLNAGLDVKALEN
MRCGIAGLCARAKKVLGEDPAGGTLLVFRGRMGDRLKILHWDGQDFCLYYKVLERGHFPWPKATEGKVALTPAQMAMLWEGIDWRQPRWTSAPTRM
MPVLHNRISNDELKAKMLAESEPRTTISFYKYFTIASPQQTRDALYQVFTALDVFGRVYLAHEGINAQISVPQSKLETFRQQLYTFDPALDGVRLNIALEDDGKSFWVLRMKVRDRIVADGIDDPTFDASNVGDYLKAADVNAMLDDPDAVFIDMRNHYEYEVGHFENALEIPADTFREQLPKAVEMLREHADKKIVMYCTGGIRCEKASAWMKHNGFNKVWHIEGGIIEYARRARAQGLPVRFIGKNFVFDERMGERISDEVIAHCHQCGASCDSHTNCKNDGCHLLFIQCPQCASKFNGCCSEQCCEELALPEEEQRRRRAGRENGNKIFNKSRGRLNSKLSIPDPAE
MMDHAHDSCSPTLRRDLEVTGQLQPEKAVDLAAPHEGKVANITKVTSSNMEHTITQASKAKEVVVLIGHSLLPTFQDLEKDILHFQAGNKGRFSVAIVDPDRSADVVARFRPKQIPVAYVVKDGASIAEFNSLNKEPVAQWLDHFVSRETIPNEKEGDVDKQIDPRLWRAAELVNAGDFRAALALYEQLPQDATVKRAHAAVSVLARMSVADRGEDPIEKSRRDPDDVNKALAAADMYVLMNQPDTALAHLAALLPKPEAARRIVELLNLFDPLDLVALEIRAQVGNAMS
FTEYGAEYKIEVGILKDVVTLTLDTSGEGLHKRGYRENSGGAPIKETLAAAMVLLSDWNPDIELADPMCGSGTIAIEAALIGKNIAPGLKRRFVSEEWDIIPKDLWSDLRKHARNSINDKEFNILCSDIDGWVIKTARANAKKAGVDKYISFQKLPMQDFSSKRKGGFIITNPPYGERLGEVKEVEKLYKDMGRVFKALDKWSYFIITAHEKFEDCFGRKSNKNRKLYNGKLKCYYYQYFGDRK
LLRHISDAFAEDPLRVLRVARFAARFHHLGFSIAEQTLELMQKMTACGELNHLTAERIWRETEKALHTESPHIYFQVLRKVNALAILFPEIDQLFGQIQSVKYHLETDRGQHTLLALQQAKLLVKQAHNPTALLWAVLCHDLGKDLISAEMLPHHYQPNVTGIQLTHQLADRLKVPTAVKELALLVNKYHTNCHKIAELDSERVLELFNQLDVWRKPQRLDDFLLACEADARARLGAEYCSYPQA
MGSDKIHHHHHHMKVLVFDVSAPYALFRRPYTTTSSYTLPFPPRTTLLGLVGCVLGYSTPERLDSAKVAVQIKNPLKFLRTGTNFVETKKDKKASKRTRISLQLLKNPAYRVFFSWEDEDFERLKNLLEHSETIFTPYLGVASFIARLNYVGKYEATRVADFPCEVHTVVPNTVKLLPEPSHYLIFERVTRKMDKERNMLESAVYIFKRDLSPVKVEGGEVWRVGEQNIVWM
MVKINITAETNGFVLLEHGEVFIKNNNDVSLKLIPNEQEVPLIINIEFANKGGRIASVDRNIVNDKLVFTCNNFQSEPGNWGGIIEPMLIAEMDDCNLYLSFLVWNIDTTNYNRLLNYSFWLKKK
MAKNKTVFSCTECGGQSPKWQGQCPHCSAWNTLVEAVAAPAAASPRFQSWAANVTKVQKLSEVQTEETPRDPSGIDELDRVLGGGIVRGAVVLIGGDPGIGKSTLLLQALSQIGRSRKVLYVSGEESAQQIALRASRLALDTSSVDLLAEICIENILETLKREQPEVVVIDSIQTLYTEQVTSAPGSVSQVRECAAQLTRMAKQSGITVLLVGHVTKEGSLAGPRVLEHMVDTVLYFEGDSHSSYRMIRAIKNRFGAVNELGVFAMTDRGLKGVSNPSAIFLSSYRDDVAGSCVLVTQEGTRPLLVEIQALVDDCHGFQPKRLTVGLEQNRLSMLLAVLHRHGGVACFDQDVFLNAVGGVKINEPAADLAIILAMVSSLRNKALPEKLVVFGEVGLAGEVRPVTRGQERLKEAAKLGFTRAIVPTANKPRQEIEGLKVLAVDRLDQAVEYCRE
MGSDKIHHHHHHMSKKFNCSIKRIRFDENYRPADSTRLTTNFANLARGEHREENLRKTLRMINNRFNALAHWDNPTADRYSVEVDIISIDMDVAGNGHTFPVIETLKTTIVDHKENTRIDGMMGNSFSSYVRDYDFSVVLPEHFNNHSTSPVSAPPEDFGDLHGKLFQYLLNSEAYKAQFNNKLVICLSVSTSKTYHRTTNQHPVLGVEYKQDDYSLTDDYFHKMGLTVRYFMPANSAAPLAFYFAGDLLTDYTDLELISAISTMETFQKIYRPEIYNANATAGEVYQPSLKYQDYSLTQIVYDRAERSQMAVKQGKFTEEQFIKPYQAILEEWAASYDVASKKNLHQ
MAHHHHHHMAEQFTEDIGVVNKRLLEPVPFVKTNNCIKDVDADLFIRSYATHLKLHNKITYPKWCTFVKTGKGRKLAPLNEDWYFIRASSILRRLYLHPDIGVGFLRRQFSSKQRRGVAPNHTSLASGKILRSILQQLENLGYVEQNPKKKGRRLTTKGENAINNFARYINKKVYNKE
MPIEATMSTSNESANLLVPSFLPRGEVLGWNLTSVVNPVTRRKEYTYTVCVQTVGAFQCTEQAGVVLVKCDGPCGNKLPTNHLIALGKCDHMLCKACFGIVKNPDGSYGCSNFYCWSEPRGNFRKEKANYNKVINKQICRARKFKQDGEDLQACSKSNLPKTPADLSDREMNSAKSSESDTSSSDGSSYQSTVDSYGLPKRF

Soluble on expression in E. coli, soluble:
MSLDRPRCCLRGKECCINRFQQVESRWGYSGTSDRIRFTVNRRISIVGFGLYGSIHGPTDYQVNMQIIEYEKKQTLGQNDTGFSCDGTANTFRVMFKEPIEILPNVCYTACATLKGPDSHYGTKGLKKVVHETPAASKTVFFFFSSPGNNNGTSIEDGQIPEIIFYTEGHHHHHH
MEIKLQGKVSLVTGSTRGIGRAIAEKLASAGSTVIITGTSGERAKAVAEEIANKYGVKAHGVEMNLLSEESINKAFEEIYNLVDGIDILVNNAGITRDKLFLRMSLLDWEEVLKVNLTGTFLVTQNSLRKMIKQRWGRIVNISSVVGFTGNVGQVNYSTTKAGLIGFTKSLAKELAPRNVLVNAVAPGFIETDMTAVLSEEIKQKYKEQIPLGRFGSPEEVANVVLFLCSELASYITGEVIHVNGGMF
MVPEVIEIDGKQWRLIWHDEFEGSEVNKEYWTFEKGNGIAYGIPGWGNGELEYYTENNTYIVNGTLVIEARKEIITDPNEGTFLYTSSRLKTEGKVEFSPPVVVEARIKLPKGKGLWPAFWMLGSNIREVGWPNCGEIDIMEFLGHEPRTIHGTVHGPGYSGSKGITRAYTLPEGVPDFTEDFHVFGIVWYPDKIKWYVDGTFYHEVTKEQVEAMGYEWVFDKPFYIILNLAVGGYWPGNPDATTPFPAKMVVDYVRVYSFVSG
SNAMSMAYEEYMRQLVVPMRRELTGAGFEELTTAEEVENFMEKAEGTTLVVVNSVCGCAAGLARPAATQAVLQNDKTPDNTVTVFAGQDKEATAKMREYFTGAAPSSPSMALLKGKEVVHFIPRHEIEGHDMEEIMKNLTAAFDAHC
MRRAELAGLKTMAWVPAESAVEELMPRLLPVEPCDLTEGFDPSVPPRTPQEYLRRVQIEAAQCPDVVVAQIDPKKLKRKQSVNISLSGCQPAPEGYSPTLQWQQQQVAQFSTVRQNVNKHRSHWKSQQLDSNVTMPKSEDEEGWKKFCLGEKLCADGAVGPATNESPGIDYVQIGFPPLLSIVSRMNQATVTSVLEYLSNWFGERDFTPELGRWLYALLACLEKPLLPEAHSLIRQLARRCSEVRLLVDSKDDERVPALNLLICLVSRYFDQRDLADEPSLEHHHHHH
MNSHDGSNFSNKFSAHKDVVEDLLRKDTVGLVTFQDFRARREYLERCAVAEAACQNASRRAEELETKKKRVKRANLSRLSFGDSLEDQEENSVEFAKITRFASSKKANGVGFNTSGQDIVKEPDVFSPKEEGFFGKQNRKIGMDPGVDTSFLPDRDREQEERLERERLKQQWLSEQERVKNEEIDIIYSIWDGRGQRKLLSCKKGTTIAKFLSIVQQKVSTLKHCKVEDLMFIKEDMIIPHHLSFYDLISMKARGKNGSLFCFDVHEDIRIRNDASVEKDDSHAAKVVERRWYERNKHIYPASMWEVFDVSKNYGRVQKDFFGN
MGTRNVRPGDRISAAIVAITDDSVFVATGSKVDGVIDRRELEEADGSLPYAVGDRVDLYVTAVNGQEIRLSKGLSGQGGAAVLEEARDSGVPVEGRVTGTCKGGYNVDVLRKRAFCPGSQIDLHQLEDAESVVGQTFQFLVTRVEQHGRNIVVSRRALLERERDAALATFLEGVKEGDVLEGTVTRLAPFGAFVEIAPGVDGMVLEHHHHHH
